Test results as given in patent US20210017264A1 (SHANGHAI YILE BIOTECHNOLOGY, published 2021).

Molecular target: T1, human proBDNF protein (prokaryotically expressed, Example 1) (human, UniProt P23560 19-247)
T1 construct: Vector-derived residues or tags are not described; also called human proBDNF antigen; recombinant human proBDNF
T1 sequence (looked up): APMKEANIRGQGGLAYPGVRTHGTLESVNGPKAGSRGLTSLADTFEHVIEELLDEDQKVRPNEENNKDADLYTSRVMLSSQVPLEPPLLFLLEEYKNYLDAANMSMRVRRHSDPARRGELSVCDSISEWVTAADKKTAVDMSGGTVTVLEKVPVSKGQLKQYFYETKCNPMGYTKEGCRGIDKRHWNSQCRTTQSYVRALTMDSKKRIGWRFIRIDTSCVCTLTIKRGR
Assay: SPR, Biacore T200; human proBDNF coated directly on the chip (~500 RU); 2B11 injected at 10-160 nM, 25 C; 1:1 Langmuir model
Method: Binding affinity of 2B11 against recombinant human proBDNF was measured by Surface Plasmon resonance (SPR) using Biacore T200™. 1×HBS-EP+ buffer was used as running buffer. Recombinant human proBDNF was directly coated on CMS biosensor chip to achieve approximately 500 response units (RU). For kinetics measurements, two-fold serial dilutions (10 nM to 160 nM) were injected at 25° C. with a flow rate of 30u1/min. Association rate (Kₐ) and dissociation rate (Kd) were calculated using a simple one to one Langmuir binding model (BIAcore Evaluation software version 3.2). The equilibrium dissociation constant (kD) was calculated as the ratio Kd/Kₐ. The binding affinity of 2B11 to human proBDNF is reported below: […]

Kd: 4.04 nM
koff: 0.00116 s⁻¹
kon: 288000 M⁻¹ s⁻¹
B1: anti-proBDNF monoclonal antibody 2B11 (antibody, human IgG1, kappa, V domains shown)
VH: EVKVVESGGGLVQPGGSLRLSCATSGFTFTDYYMSWVRQPPGKALEWLGFIRNKANGYTTEYSSSVKGRFTISRDNSQSILYLQMNTLRAEDSATYYCAITMDYWGQGTSVTVSS
VL: DIQMTQSPASLSASVGETVTITCRASGNIHNYLAWYQKKQGKSPHLLVYNAQTLADGVPSRFSGSASGTQYSLKIDSLQPEDFGSYYCQHFWSTPFTFGSGTKLEIKR
notes: also called murine monoclonal antibody 2B11; antibody secreted from clone 2B11
